The record followed here is PMC9100651 (2022).

This assay addresses GABARAP (Homo sapiens, UniProt O95166). The assay is described as follows: MST, SPR.

Chain of GABARAP (O95166 1-116): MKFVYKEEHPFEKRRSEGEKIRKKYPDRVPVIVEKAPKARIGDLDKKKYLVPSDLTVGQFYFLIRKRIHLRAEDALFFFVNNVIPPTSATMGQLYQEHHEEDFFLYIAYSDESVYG

B1: K1 peptide (peptide)
chain: DATYTWEHLAWP
Regarding B1, the dissociation constant (Kd) was about 3000 nM.
